B1: DVD1525 (bispecific antibody, human IgG1, kappa)
heavy: not shown
light: EIVMTQSPATLSVSPGERATLSCRASQSVSSNLAWYQQKPGQAPRLLIHGASIRATGLPARFSGSGSGTEFTLTISSLQSEDFAVYYCQQYNYWWTFGQGTKVEIKRTVAAPDVQMIQSPSSLSASLGDIVTMTCQASQGTSINLNWFQQKPGKAPKLLIYGSSNLEDGVPSRFSGSRYGTDFTLTISSLEDEDLATYFCLQHSYLPYTFGGGTKLEIKRTVAAPSVFIFPPSDEQLKSGTASVVCLLNNFYPREAKVQWKVDNALQSGNSQESVTEQDSKDSTYSLSSTLTLSKADYEKHKVYACEVTHQGLSSPVTKSFNRGEC
notes: DVD-Ig; linker set 3; also called DVD1525H; DVD1525L
B2: DVD1454 (bispecific antibody, human IgG1, kappa)
heavy: not shown
light: DVQMIQSPSSLSASLGDIVTMTCQASQGTSINLNWFQQKPGKAPKLLIYGSSNLEDGVPSRFSGSRYGTDFTLTISSLEDEDLATYFCLQHSYLPYTFGGGTKLEIKRTVAAPSVFIFPPDIVMTQSHKFMSTTVGDRVSITCKASQAVSSAVAWYQQKPGQSPKLLIYWASTRHTGVPDRFTGSGSVTDFTLTIHNLQAEDLALYYCQQHYSTPFTFGSGTKLEIKRTVAAPSVFIFPPSDEQLKSGTASVVCLLNNFYPREAKVQWKVDNALQSGNSQESVTEQDSKDSTYSLSSTLTLSKADYEKHKVYACEVTHQGLSSPVTKSFNRGEC
notes: DVD-Ig; linker set 2; also called DVD1454H; DVD1454L
B3: DVD1478 (bispecific antibody, human IgG1, kappa)
heavy: not shown
light: DIQMTQSPSSLSASVGDRVTITCRASQSISNNLNWYQQKPGKAPKLLIYYTSRFHSGVPSRFSGSGSGTDFTFTISSLQPEDIATYYCQQEHTLPYTFGQGTKLEIKRTVAAPSVFIFPPDIQMTQSPSSLSASVGDRVTITCRASQGIRIDLGWYQQKPGKAPKRLIYAASTLQSGVPSRFSGSGSGTEFIFTISSLQPEDFASYYCLQHKSYPLTFGGGTKVEIKRTVAAPSVFIFPPSDEQLKSGTASVVCLLNNFYPREAKVQWKVDNALQSGNSQESVTEQDSKDSTYSLSSTLTLSKADYEKHKVYACEVTHQGLSSPVTKSFNRGEC
notes: DVD-Ig; linker set 2; also called DVD1478H; DVD1478L
B4: DVD1495 (bispecific antibody, human IgG1, kappa)
heavy: not shown
light: DIVMTQSHKFMSTTVGDRVSITCKASQAVSSAVAWYQQKPGQSPKLLIYWASTRHTGVPDRFTGSGSVTDFTLTIHNLQAEDLALYYCQQHYSTPFTFGSGTKLEIKRTVAAPDVQMIQSPSSLSASLGDIVTMTCQASQGTSINLNWFQQKPGKAPKLLIYGSSNLEDGVPSRFSGSRYGTDFTLTISSLEDEDLATYFCLQHSYLPYTFGGGTKLEIKRTVAAPSVFIFPPSDEQLKSGTASVVCLLNNFYPREAKVQWKVDNALQSGNSQESVTEQDSKDSTYSLSSTLTLSKADYEKHKVYACEVTHQGLSSPVTKSFNRGEC
notes: DVD-Ig; linker set 3; also called DVD1495H; DVD1495L
B5: DVD1517 (bispecific antibody, human IgG1, kappa)
heavy: not shown
light: DIQMTQSPSSLSASVGDRVTITCRASQGIRIDLGWYQQKPGKAPKRLIYAASTLQSGVPSRFSGSGSGTEFIFTISSLQPEDFASYYCLQHKSYPLTFGGGTKVEIKRTVAAPDVQMIQSPSSLSASLGDIVTMTCQASQGTSINLNWFQQKPGKAPKLLIYGSSNLEDGVPSRFSGSRYGTDFTLTISSLEDEDLATYFCLQHSYLPYTFGGGTKLEIKRTVAAPSVFIFPPSDEQLKSGTASVVCLLNNFYPREAKVQWKVDNALQSGNSQESVTEQDSKDSTYSLSSTLTLSKADYEKHKVYACEVTHQGLSSPVTKSFNRGEC
notes: DVD-Ig; linker set 3; also called DVD1517H; DVD1517L
B6: DVD1502 (bispecific antibody, human IgG1, kappa)
heavy: not shown
light: DIQMTQSPSSLSASVGDRVTITCRASQSISNNLNWYQQKPGKAPKLLIYYTSRFHSGVPSRFSGSGSGTDFTFTISSLQPEDIATYYCQQEHTLPYTFGQGTKLEIKRTVAAPDIVMTQSHKFMSTTVGDRVSITCKASQAVSSAVAWYQQKPGQSPKLLIYWASTRHTGVPDRFTGSGSVTDFTLTIHNLQAEDLALYYCQQHYSTPFTFGSGTKLEIKRTVAAPSVFIFPPSDEQLKSGTASVVCLLNNFYPREAKVQWKVDNALQSGNSQESVTEQDSKDSTYSLSSTLTLSKADYEKHKVYACEVTHQGLSSPVTKSFNRGEC
notes: DVD-Ig; linker set 3; also called DVD1502H; DVD1502L
B7: DVD1483 (bispecific antibody, human IgG1, kappa)
heavy: not shown
light: EIVMTQSPATLSVSPGERATLSCRASQSVSSNLAWYQQKPGQAPRLLIHGASIRATGLPARFSGSGSGTEFTLTISSLQSEDFAVYYCQQYNYWWTFGQGTKVEIKRTVAAPSVFIFPPDVQMIQSPSSLSASLGDIVTMTCQASQGTSINLNWFQQKPGKAPKLLIYGSSNLEDGVPSRFSGSRYGTDFTLTISSLEDEDLATYFCLQHSYLPYTFGGGTKLEIKRTVAAPSVFIFPPSDEQLKSGTASVVCLLNNFYPREAKVQWKVDNALQSGNSQESVTEQDSKDSTYSLSSTLTLSKADYEKHKVYACEVTHQGLSSPVTKSFNRGEC
notes: DVD-Ig; linker set 2; also called DVD1483H; DVD1483L
B8: DVD1520 (bispecific antibody, human IgG1, kappa)
heavy: not shown
light: DIQMTQSPSSLSASVGDRVTITCRASQSISNNLNWYQQKPGKAPKLLIYYTSRFHSGVPSRFSGSGSGTDFTFTISSLQPEDIATYYCQQEHTLPYTFGQGTKLEIKRTVAAPDIQMTQSPSSLSASVGDRVTITCRASQGIRIDLGWYQQKPGKAPKRLIYAASTLQSGVPSRFSGSGSGTEFIFTISSLQPEDFASYYCLQHKSYPLTFGGGTKVEIKRTVAAPSVFIFPPSDEQLKSGTASVVCLLNNFYPREAKVQWKVDNALQSGNSQESVTEQDSKDSTYSLSSTLTLSKADYEKHKVYACEVTHQGLSSPVTKSFNRGEC
notes: DVD-Ig; linker set 3; also called DVD1520H; DVD1520L
B9: DVD1460 (bispecific antibody, human IgG1, kappa)
heavy: not shown
light: DIQMTQSPSSLSASVGDRVTITCRASQSISNNLNWYQQKPGKAPKLLIYYTSRFHSGVPSRFSGSGSGTDFTFTISSLQPEDIATYYCQQEHTLPYTFGQGTKLEIKRTVAAPSVFIFPPDIVMTQSHKFMSTTVGDRVSITCKASQAVSSAVAWYQQKPGQSPKLLIYWASTRHTGVPDRFTGSGSVTDFTLTIHNLQAEDLALYYCQQHYSTPFTFGSGTKLEIKRTVAAPSVFIFPPSDEQLKSGTASVVCLLNNFYPREAKVQWKVDNALQSGNSQESVTEQDSKDSTYSLSSTLTLSKADYEKHKVYACEVTHQGLSSPVTKSFNRGEC
notes: DVD-Ig; linker set 2; also called DVD1460H; DVD1460L
B10: AB020 (antibody, V domains shown)
VH: QVQLQESGPGLVKPSETLSLTCTVSGFSLIGYDLNWIRQPPGKGLEWIGIIWGDGTTDYNSAVKSRVTISKDTSKNQFSLKLSSVTAADTAVYYCARGGYWYATSYYFDYWGQGTLVTVSS
VL: DIQMTQSPSSLSASVGDRVTITCRASQSISNNLNWYQQKPGKAPKLLIYYTSRFHSGVPSRFSGSGSGTDFTFTISSLQPEDIATYYCQQEHTLPYTFGQGTKLEIKR
notes: Parent antibody; also called NGF parent antibody

Target: T1, Recombinant Human TNF-α/TNFSF1A (human, UniProt P01375 77-233)
Experiment: cell-based or functional assay

T1 sequence (P01375 77-233 limits assumed): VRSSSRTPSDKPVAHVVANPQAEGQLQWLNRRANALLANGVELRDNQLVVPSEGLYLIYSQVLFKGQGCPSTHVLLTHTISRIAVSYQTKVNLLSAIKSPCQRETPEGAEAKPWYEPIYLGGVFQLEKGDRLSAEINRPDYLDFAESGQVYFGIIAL

Binder	TNFα Neutralization Assay EC50 (L929 cells) [nM]
B1	0.0029
B2	0.951
B3	0.329
B4	0.0038
B5	0.0012
B6	0.46
B7	0.012
B8	7.21

Target: T2, Recombinant Human SOST (human, UniProt Q9BQB4 24-213)
T2 construct: Biacore reagent from R&D Systems; the Wnt-1/luciferase assay used Human Sclerostin (Abbott PR-1261069); also called Sclerostin; Human Sclerostin
T2 sequence (looked up): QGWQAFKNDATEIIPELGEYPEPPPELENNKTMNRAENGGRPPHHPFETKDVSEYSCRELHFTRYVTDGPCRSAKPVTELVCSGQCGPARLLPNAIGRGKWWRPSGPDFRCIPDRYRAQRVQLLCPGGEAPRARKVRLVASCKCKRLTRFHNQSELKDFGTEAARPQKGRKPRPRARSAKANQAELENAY
Experiment: Biacore SPR
Protocol: (§1) The BIACORE assay (Biacore, Inc, Piscataway, N.J.) determines the affinity of antibodies or DVD-Ig with kinetic measurements of on-rate and off-rate constants. Binding of antibodies or DVD-Ig to a target antigen (for example, a purified recombinant target antigen) is determined by surface plasmon resonance-based measurements with a Biacore® 1000 or 3000 instrument (Biacore® AB, Uppsala, Sweden) using running HBS-EP (10 mM HEPES [pH 7.4], 150 mM NaCl, 3 mM EDTA, and 0.005% surfactant P20) at 25° C. All chemicals are obtained from Biacore® AB (Uppsala, Sweden) or otherwise from a different source as described in the text. For example, approximately 5000 RU of goat anti-mouse IgG, (Fcγ), fragment specific polyclonal antibody (Pierce Biotechnology Inc, Rockford, Ill.) diluted in 10 mM sodium acetate (pH 4.5) is directly immobilized across a CMS research grade biosensor chip using a standard amine coupling kit according to manufacturer's instructions and procedures at 25 μg/ml. Unreacted moieties on the biosensor surface are blocked with ethanolamine. Modified carboxymethyl dextran surface in flowcell 2 and 4 is used as a reaction surface. Unmodified carboxymethyl dextran without goat anti-mouse IgG in flow cell 1 and 3 is used as the reference surface. For kinetic analysis, rate equations derived from the 1:1 Langmuir binding model are fitted simultaneously to association and dissociation phases of all eight injections (using global fit analysis) with the use of Biaevaluation 4.0.1 software. Purified antibodies or DVD-Ig are diluted in HEPES-buffered saline for capture across goat anti-mouse IgG specific reaction surfaces. Antibodies or DVD-Ig to be captured as a ligand (25 μg/ml) are injected over reaction matrices at a flow rate of 5 μl/min. The association and dissociation rate constants, kₒₙ (M⁻¹s⁻) and koff(s⁻¹) are determined under a continuous flow rate of 25 μl/min. Rate constants are derived by making kinetic binding measurements at different antigen concentrations ranging from 10-200 nM. The equilibrium dissociation constant (M) of the reaction between antibodies or DVD-Igs and the target antigen is then calculated from the kinetic rate constants by the following formula: KD=koff/kₒₙ. Binding is recorded as a function of time and kinetic rate constants are calculated.

Binder	Kd [nM]	koff [s⁻¹]	kon [M⁻¹ s⁻¹]
B1	9.8	0.00089	91000
B2	0.084	0.00086	1e+07
B4	22	0.00095	44000
B5	5.5	0.0005	89000
B7	0.78	0.00083	1.1e+06

Target: T1, Recombinant Human TNF-α/TNFSF1A
Experiment: Biacore SPR
Protocol: as §1

Binder	Kd [nM]	koff [s⁻¹]	kon [M⁻¹ s⁻¹]
B1	0.015	3e-05	2e+06
B2	0.21	4.9e-05	230000
B3	0.1	1.5e-05	150000
B4	0.021	5.4e-05	2.5e+06
B5	0.018	4.7e-05	2.6e+06
B6	0.3	5.5e-05	180000
B9	0.26	3.6e-05	140000
B7	0.012	3.3e-05	2.8e+06
B8	0.0038	4.4e-06	1.1e+06

Target: T3, Recombinant Human β-NGF (human, UniProt P01138 122-241)
T3 construct: Bought reagent; also called huNGF
Experiment: Biacore SPR
Protocol: as §1

T3 sequence (P01138 122-241 limits assumed): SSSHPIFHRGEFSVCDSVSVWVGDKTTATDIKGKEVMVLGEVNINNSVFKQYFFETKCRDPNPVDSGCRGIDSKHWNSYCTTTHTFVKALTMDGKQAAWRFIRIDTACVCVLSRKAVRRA

Binder	Kd [nM]	koff [s⁻¹]	kon [M⁻¹ s⁻¹]
B10	0.00673	4.08e-06	606000
B3	0.0025	6e-06	2.4e+06
B6	< 0.0004	< 1e-06	2.5e+06
B9	0.00085	2e-06	2.3e+06
B8	0.0034	9.3e-06	2.7e+06

Target: T3, Recombinant Human β-NGF
Experiment: cell-based or functional assay

Binder	NGF Inhibition Assay EC50 (TF-1 cell proliferation) [nM]
B10	0.003
B3	0.019
B6	0.028
B9	1.7
B8	0.025
